Results reported in the supplement of paper PMC5998384.

Key:
[1] = tested on: HeLa Kyoto; experiment: thermal stability score vs G1/S (z-score of summed log2 fold changes over temperatures); higher = more thermally stable than in G1/S
[2] = tested on: HeLa Kyoto; experiment: solubility change mitosis vs G1/S (difference of NP-40 vs SDS log2 ratios) (log2 ratio difference); higher = more soluble in mitosis
[3] = tested on: HeLa Kyoto; experiment: solubility in G1/S (NP-40 vs SDS abundance) (log2 ratio); higher = more soluble; details: cell cycle stage: G1/S
[4] = tested on: HeLa Kyoto; experiment: melting temperature (median over replicates), in situ; higher = more thermally stable
[5] = cell cycle stage: early G1 (4.5 h after nocodazole release)
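Throughout, for melting temperature (median over replicates), in situ: HeLa Kyoto cells synchronized by double thymidine or nocodazole block, proteins quantified by TMT10plex mass spectrometry, three independent biological replicates.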
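Throughout, for solubility change mitosis vs G1/S (difference of NP-40 vs SDS log2 ratios): synchronized HeLa Kyoto cells (double thymidine block for G1/S, nocodazole release for mitosis), protein amounts in NP-40 versus SDS lysates quantified by mass spectrometry, three biological replicates.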
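Throughout, for solubility in G1/S (NP-40 vs SDS abundance): HeLa Kyoto cells arrested at G1/S by double thymidine block, proteins quantified by TMT10plex mass spectrometry in mild NP-40 versus SDS extracts, three biological replicates.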
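Throughout, for thermal stability score vs G1/S (z-score of summed log2 fold changes over temperatures): synchronized HeLa Kyoto cells, proteins quantified by TMT10plex mass spectrometry, three biological replicates, mitosis taken 0.5 h after nocodazole release, G1/S directly after double thymidine block.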

Sequence | thermal stability score [1, 5] | thermal stability score ([1]; cell cycle stage: mitosis) | solubility change mitosis (log2) [2] | solubility in G1/S (log2) [3] | melting temperature ([4]; cell cycle stage: G1/S) | melting temperature ([4]; cell cycle stage: mitosis)
MPLVTRNIEPRHLCRQTLPSVRSELECVTNITLANVIRQLGSLSKYAEDIFGELFTQANTFASRVSSLAERVDRLQVKVTQLDPKEEEVSLQGINTRKAFRSSTIQDQKLFDRNSLPVPVLETYNTCDTPPPLNNLTPYRDDGKEALKFYTDPSYFFDLWKEKMLQDTKDIMKEKRKHRKEKKDNPNRGNVNPRKIKTRKEEWEKMKMGQEFVESKEKLGTSGYPPTLVYQNGSIGCVENVDASSYPPPPQSDSASSPSPSFSEDNLPPPPAEFSYPVDNQRGSGLAGPKRSSVVSPSHPPPAPPLGSPPGPKPGFAPPPAPPPPPPPMIGIPPPPPPVGFGSPGTPPPPSPPSFPPHPDFAAPPPPPPPPAADYPTLPPPPLSQPTGGAPPPPPPPPPPGPPPPPFTGADGQPAIPPPLSDTTKPKSSLPAVSDARSDLLSAIRQGFQLRRVEEQREQEKRDVVGNDVATILSRRIAVEYSDSEDDSSEFDEDDWSD [WASF2] | 0.736 | 1.04 | -0.146 | 0.196 | 51.8 °C | 51.5 °C
MPMYQVKPYHGGGAPLRVELPTCMYRLPNVHGRSYGPAPGAGHVQEESNLSLQALESRQDDILKRLYELKAAVDGLSKMIQTPDADLDVTNIIQADEPTTLTTNALDLNSVLGKDYGALKDIVINANPASPPLSLLVLHRLLCEHFRVLSTVHTHSSVKSVPENLLKCFGEQNKKQPRQDYQLGFTLIWKNVPKTQMKFSIQTMCPIEGEGNIARFLFSLFGQKHNAVNATLIDSWVDIAIFQLKEGSSKEKAAVFRSMNSALGKSPWLAGNELTVADVVLWSVLQQIGGCSVTVPANVQRWMRSCENLAPFNTALKLLK [AIMP2] | 0.153 | 1.22 | 0.104 | 0.321 | 48.9 °C | 49.6 °C
MPPAVGGPVGYTPPDGGWGWAVVIGAFISIGFSYAFPKSITVFFKEIEGIFHATTSEVSWISSIMLAVMYGGGPISSILVNKYGSRIVMIVGGCLSGCGLIAASFCNTVQQLYVCIGVIGGLGLAFNLNPALTMIGKYFYKRRPLANGLAMAGSPVFLCTLAPLNQVFFGIFGWRGSFLILGGLLLNCCVAGALMRPIGPKPTKAGKDKSKASLEKAGKSGVKKDLHDANTDLIGRHPKQEKRSVFQTINQFLDLTLFTHRGFLLYLSGNVIMFFGLFAPLVFLSSYGKSQHYSSEKSAFLLSILAFVDMVARPSMGLVANTKPIRPRIQYFFAASVVANGVCHMLAPLSTTYVGFCVYAGFFGFAFGWLSSVLFETLMDLVGPQRFSSAVGLVTIVECCPVLLGPPLLGRLNDMYGDYKYTYWACGVVLIISGIYLFIGMGINYRLLAKEQKANEQKKESKEEETSIDVAGKPNEVTKAAESPDQKDTDGGPKEEESPV [SLC16A1] | -4.15 | -10.4 | -0.115 | 0.186 | 55 °C | 57 °C
MPPKVTSELLRQLRQAMRNSEYVTEPIQAYIIPSGDAHQSEYIAPCDCRRAFVSGFDGSAGTAIITEEHAAMWTDGRYFLQAAKQMDSNWTLMKMGLKDTPTQEDWLVSVLPEGSRVGVDPLIIPTDYWKKMAKVLRSAGHHLIPVKENLVDKIWTDRPERPCKPLLTLGLDYTGISWKDKVADLRLKMAERNVMWFVVTALDEIAWLFNLRGSDVEHNPVFFSYAIIGLETIMLFIDGDRIDAPSVKEHLLLDLGLEAEYRIQVHPYKSILSELKALCADLSPREKVWVSDKASYAVSETIPKDHRCCMPYTPICIAKAVKNSAESEGMRRAHIKDAVALCELFNWLEKEVPKGGVTEISAADKAEEFRRQQADFVDLSFPTISSTGPNGAIIHYAPVPETNRTLSLDEVYLIDSGAQYKDGTTDVTRTMHFGTPTAYEKECFTYVLKGHIAVSAAVFPTGTKGHLLDSFARSALWDSGLDYLHGTGHGVGSFLNVHEGPCGISYKTFSDEPLEAGMIVTDEPGYYEDGAFGIRIENVVLVVPVKTKYNFNNRGSLTFEPLTLVPIQTKMIDVDSLTDKECDWLNNYHLTCRDVIGKELQKQGRQEALEWLIRETQPISKQH [XPNPEP1] | -1 | -3.97 | -0.14 | 0.105 | 53 °C | 51.9 °C
MPPPQGDVTALFLGPPGLGKSALIAALCDKDVETLEAPEGRPDSGVPSLRAAGPGLFLGELSCPPAAPGPWAAEANVLVLVLPGPEGNGEPLAPALGEAALAALARGTPLLAVRNLRPGDSQTAAQARDQTAALLNSAGLGAADLFVLPANCGSSDGCEELERLRAALQSQAEALRRLLPPAQDGFEVLGAAELEAVREAFETGGLEAALSWVRSGLERLGSARLDLAVAGKADVGLVVDMLLGLDPGDPGAAPASVPTAPTPFPAPERPNVVLWTVPLGHTGTATTAAAASHPTHYDALILVTPGAPTEKDWAQVQALLLPDAPLVCVRTDGEGEDPECLGEGKMENPKGESLKNAGGGGLENALSKGREKCSAGSQKAGSGEGPGKAGSEGLQQVVGMKKSGGGDSERAAALSPEDETWEVLEEAPPPVFPLRPGGLPGLCEWLRRALPPAQAGALLLALPPASPSAARTKAAALRAGAWRPALLASLAAAAAPLPGLGWACDVALLRGQLAEWRRGLGLEPTALARRERALGLASGELAARAHFPGPVTRAEVEARLGAWAGEGTAGGAALGALSFLWPAGGAAATGGLGYRAAHGVLLQALDEMRADAEAVLAPPEPAQ [IRGQ] | -0.649 | 0.0432 | 0.141 | 0.437 | 51.3 °C | 51.3 °C
MPPPSDIVKVAIEWPGANAQLLEIDQKRPLASIIKEVCDGWSLPNPEYYTLRYADGPQLYITEQTRSDIKNGTILQLAISPSRAARQLMERTQSSNMETRLDAMKELAKLSADVTFATEFINMDGIIVLTRLVESGTKLLSHYSEMLAFTLTAFLELMDHGIVSWDMVSITFIKQIAGYVSQPMVDVSILQRSLAILESMVLNSQSLYQKIAEEITVGQLISHLQVSNQEIQTYAIALINALFLKAPEDKRQDMANAFAQKHLRSIILNHVIRGNRPIKTEMAHQLYVLQVLTFNLLEERMMTKMDPNDQAQRDIIFELRRIAFDAESDPSNAPGSGTEKRKAMYTKDYKMLGFTNHINPAMDFTQTPPGMLALDNMLYLAKVHQDTYIRIVLENSSREDKHECPFGRSAIELTKMLCEILQVGELPNEGRNDYHPMFFTHDRAFEELFGICIQLLNKTWKEMRATAEDFNKVMQVVREQITRALPSKPNSLDQFKSKLRSLSYSEILRLRQSERMSQDDFQSPPIVELREKIQPEILELIKQQRLNRLCEGSSFRKIGNRRRQERFWYCRLALNHKVLHYGDLDDNPQGEVTFESLQEKIPVADIKAIVTGKDCPHMKEKSALKQNKEVLELAFSILYDPDETLNFIAPNKYEYCIWIDGLSALLGKDMSSELTKSDLDTLLSMEMKLRLLDLENIQIPEAPPPIPKEPSSYDFVYHYG [ELMO2] | 0.0114 | 0.0809 | -0.134 | 0.00667 | 49.5 °C | 49.5 °C
MPQTRSQAQATISFPKRKLSRALNKAKNSSDAKLEPTNVQTVTCSPRVKALPLSPRKRLGDDNLCNTPHLPPCSPPKQGKKENGPPHSHTLKGRRLVFDNQLTIKSPSKRELAKVHQNKILSSVRKSQEITTNSEQRCPLKKESACVRLFKQEGTCYQQAKLVLNTAVPDRLPAREREMDVIRNFLREHICGKKAGSLYLSGAPGTGKTACLSRILQDLKKELKGFKTIMLNCMSLRTAQAVFPAIAQEICQEEVSRPAGKDMMRKLEKHMTAEKGPMIVLVLDEMDQLDSKGQDVLYTLFEWPWLSNSHLVLIGIANTLDLTDRILPRLQAREKCKPQLLNFPPYTRNQIVTILQDRLNQVSRDQVLDNAAVQFCARKVSAVSGDVRKALDVCRRAIEIVESDVKSQTILKPLSECKSPSEPLIPKRVGLIHISQVISEVDGNRMTLSQEGAQDSFPLQQKILVCSLMLLIRQLKIKEVTLGKLYEAYSKVCRKQQVAAVDQSECLSLSGLLEARGILGLKRNKETRLTKVFFKIEEKEIEHALKDKALIGNILATGLP [CDC6] | 0.564 | 0.496 | 0.351 | -0.114 | 50.1 °C | 53.2 °C
MPRAPAPLYACLLGLCALLPRLAGLNICTSGSATSCEECLLIHPKCAWCSKEDFGSPRSITSRCDLRANLVKNGCGGEIESPASSFHVLRSLPLSSKGSGSAGWDVIQMTPQEIAVNLRPGDKTTFQLQVRQVEDYPVDLYYLMDLSLSMKDDLDNIRSLGTKLAEEMRKLTSNFRLGFGSFVDKDISPFSYTAPRYQTNPCIGYKLFPNCVPSFGFRHLLPLTDRVDSFNEEVRKQRVSRNRDAPEGGFDAVLQAAVCKEKIGWRKDALHLLVFTTDDVPHIALDGKLGGLVQPHDGQCHLNEANEYTASNQMDYPSLALLGEKLAENNINLIFAVTKNHYMLYKNFTALIPGTTVEILDGDSKNIIQLIINAYNSIRSKVELSVWDQPEDLNLFFTATCQDGVSYPGQRKCEGLKIGDTASFEVSLEARSCPSRHTEHVFALRPVGFRDSLEVGVTYNCTCGCSVGLEPNSARCNGSGTYVCGLCECSPGYLGTRCECQDGENQSVYQNLCREAEGKPLCSGRGDCSCNQCSCFESEFGKIYGPFCECDNFSCARNKGVLCSGHGECHCGECKCHAGYIGDNCNCSTDISTCRGRDGQICSERGHCLCGQCQCTEPGAFGEMCEKCPTCPDACSTKRDCVECLLLHSGKPDNQTCHSLCRDEVITWVDTIVKDDQEAVLCFYKTAKDCVMMFTYVELPSGKSNLTVLREPECGNTPNAMTILLAVVGSILLVGLALLAIWKLLVTIHDRREFAKFQSERSRARYEMASNPLYRKPISTHTVDFTFNKFNKSYNGTVD [ITGB5] | 0.876 | 3.15 | 0.0246 | -0.15 | 56 °C | 56.7 °C
MPRVKAAQAGRQSSAKRHLAEQFAVGEIITDMAKKEWKVGLPIGQGGFGCIYLADMNSSESVGSDAPCVVKVEPSDNGPLFTELKFYQRAAKPEQIQKWIRTRKLKYLGVPKYWGSGLHDKNGKSYRFMIMDRFGSDLQKIYEANAKRFSRKTVLQLSLRILDILEYIHEHEYVHGDIKASNLLLNYKNPDQVYLVDYGLAYRYCPEGVHKEYKEDPKRCHDGTIEFTSIDAHNGVAPSRRGDLEILGYCMIQWLTGHLPWEDNLKDPKYVRDSKIRYRENIASLMDKCFPEKNKPGEIAKYMETVKLLDYTEKPLYENLRDILLQGLKAIGSKDDGKLDLSVVENGGLKAKTITKKRKKEIEESKEPGVEDTEWSNTQTEEAIQTRSRTRKRVQK [VRK1] | 3.16 | 3.91 | -0.0401 | -0.215 | 48.2 °C | 49.8 °C
MPRVVPDQRSKFENEEFFRKLSRECEIKYTGFRDRPHEERQARFQNACRDGRSEIAFVATGTNLSLQFFPASWQGEQRQTPSREYVDLEREAGKVYLKAPMILNGVCVIWKGWIDLQRLDGMGCLEFDEERAQQEDALAQQAFEEARRRTREFEDRDRSHREEMEVRVSQLLAVTGKKTTRP [CBFB] | 0.755 | 0.955 | -0.072 | 0.199 | 49 °C | 51.2 °C
MPRVYIGRLSYQARERDVERFFKGYGKILEVDLKNGYGFVEFDDLRDADDAVYELNGKDLCGERVIVEHARGPRRDGSYGSGRSGYGYRRSGRDKYGPPTRTEYRLIVENLSSRCSWQDLKDYMRQAGEVTYADAHKGRKNEGVIEFVSYSDMKRALEKLDGTEVNGRKIRLVEDKPGSRRRRSYSRSRSHSRSRSRSRHSRKSRSRSGSSKSSHSKSRSRSRSGSRSRSKSRSRSQSRSRSKKEKSRSPSKEKSRSRSHSAGKSRSKSKDQAEEKIQNNDNVGKPKSRSPSRHKSKSKSRSRSQERRVEEEKRGSVSRGRSQEKSLRQSRSRSRSKGGSRSRSRSRSKSKDKRKGRKRSREESRSRSRSRSKSERSRKRGSKRDSKAGSSKKKKKEDTDRSQSRSPSRSVSKEREHAKSESSQREGRGESENAGTNQETRSRSRSNSKSKPNLPSESRSRSKSASKTRSRSKSRSRSASRSPSRSRSRSHSRS [SRSF4] | -1.55 | -1 | 0.361 | -0.671 | 50.7 °C | 50.2 °C
